Measurements as given in the domain aggregation screens of Martell et al. (2025).

Test: soluble fraction after stress (log2 fold change); higher = more stays soluble; pooled small domains, quantitative proteomics
Conditions: stress: pH 4
How it was run: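 After pH 4 stress, pooled custom libraries of small protein domains were quantified with high-throughput quantitative proteomics. Aggregation propensity is taken from the fold change in each domain's soluble amount following the acid stress. The scale is log2, where higher values mean more stayed soluble.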

Sequence | soluble fraction (log2)
HMAGSGDLNAKYLASIPAPMKAKILKAVANHYGVSISEFEEEVTDKDAEALYEYIPTRSMAVQVLRDMKG | 0.199
HMGQTYTITINPTPADAKVIIDGVATNSVEAIDGRTLIWSVSKPGYLTKSGNYTVTGKNETLNIVLKEDPD | -0.283
HMLIADSDALRSQIESILNGNPNEVASFRAGKESLMGWFVGQVMRSTGGKADPKRTRELLQELLTK | -0.0841
HMGPEAFPVPYIVDIELDRAIYVIEQSGFIVGQKLEANDDNVPRGFVISQNPAAGTKLGPNSVVDLVISSG | -0.893
HMNQNHFLDSVVEFAKDEASRAFFQKAVKKLGEGLVEEAMGEVKMREADGSVNSRAPYFIALLENWMENR | -0.128
HMALKSYEDMVGKTGVAYTVLRPSGKVIINDELFDATARSGMIEKGNEVIIYDYKNAQLIVEK | -0.518
HMPKITTIHIDPEKISKVIGPGGKTVKKIIEETGAKIDIEDTGKIFIAAVNTEAANKAIDMINGIVA | -0.0168
HMDIAYFSNAELNDAFIQFLNMRQEAGKQLNGYQIQILTEKLERVADTDEDRISAVKNAIAGGWSNFYPPK | -0.366
HMPSPEVELLEDLLSKTDEAEVEAAFHENQALVNDEFKAMLGSLIQELSKTQEADPEIIARIRFIQKLT | -1.27
HMGPNYYDILEIPTDASPSEITQAFRKKALEWHPDKNPNNLEEATSRFIEIVEAYRVLSSKDSKLQYDTG | -0.422
HMRSLAVGNVVSEEGKPSYLLLDSKRTMLFSENSIPSLYLEDGRRVIVNYTLLDEDYQGYDFRIHVNDIDT | 0.22
HMNDFVTVPDLQGIFYSEAIKKIDKMGLKEGSIQFVNQDKFLPNTVLNQNPKEGTKVSQDSPINLIIS | -0.594
HMETENLSPREREILEYIVKGYSYKMIAADLNIATETVRSHIKKIYKKLQVNSATEAVYKYSN | -0.424
HMVDKTMYDRYAVDDYVRVIDGPLVGTEGRIIELDRETGNVKIEAVFFGRVTTADINFALIEKVD | -1.33
HMSENDTILAKFASIINNKSLELVIFPDTAYLKGQVSTPEDKARAETVAQSLLGSKPLISLIEFE | -0.167
HMAEDLRTLDGIDEDLLRDLAQAGITTRDGLAELSIDELREITGVEPGEAEKIILAARAHWFETDE | -1.19
HMAEKGIGRVNADWLNMRTSPGGEVLTVLKQGTELQVIGRSGSWLEVQHGNEQGYVSSRYITIQP | 0.132
HMGTVIGMGRITAGGVNFRETEGGGVIEKLERDTLVEVLTVPSVIDTTHWYQVRYNNRTGYVQAPFVQLLG | 0.176
HMGIPVSIGQLDFNQARGNLALQVRASDFAALEQLRQRLGQTGESVQLGSASRDGDAVSARVVIGGQ | -0.0672
HMDNFDVVLTSPGDQKVQVIKAVRSITGLGLKEAKDLVDGAPNTVKEGVKKLDAEEMLKQLTEAGATGEL | -0.366
HMSSKYLKIYNDIVGKIDSGIFEANTKLPSESQLMDEYNVSRYTVRKSLNLLEQNGYIEKSKGKGSFVLDM | -0.1
HMLPTLSLSVKIYKGEGDIALDLEEMVKAFDQLNFGSYPFSEKGVHGTNIVIRGNDKKHMEEAEDKVRSLT | -0.959
HMKVDRLISIVLVLLDKNRISAQELADMFEVSLRTIYRDIDAIELAGIPIRSTSGVGGGFEIMPNY | -1.19
HMKRWHVGDPIDALTAAGKVPSWSTIRQRFWKTIAALYPDIEQSERLQRGLAMLDEAGTSIELHHP | -0.615
HMKIATIELVKEAVKSKLGKFTKRDIMELVPSVGKTTIENMLKQLIGEGYIERHGKGRATFYVK | 0.158
HMNSIDIENELVKIIEKNGQPMSFDDLVFKLDSLYSTRYKFAKGYIRTIILNSNRIASIGKTSTYSLYKWN | -0.31

Sequence | soluble fraction (log2)
HMDIVQLSEKINVMKMEIPAQAIGKTVLEVNFRARFDLNIIAIENGGKLVEVIKPDYVFREGDILFLSGS | -1.31
HMLEIGRYNTLTVLRKVDFGYYLDGLDYGDILMPAKYAATELEAGDEVDVFIYLDSSEKLIATTETPIAQ | -1.58
HMQNGNYVVQRQDSLWSIAARISGQTHQPIGEVMNHIKALNEHAFVGGNVNRLRTGTNLNLG | 0.125
HMDTQITPNKAKEIALAHAGVTEAAANFKKIKLDNKNGKSIYEIEFIANKSRYEFIVDAKNGSIIKFEK | 0.102
HMREGLRHLRVRMPGGAGETLAMLYREGEVLSQSSDGAFIEVEIRVAQSVAGRLLQMPGVQLTEEVG | -0.871
HMATYDIDALKVDLPSAKELAQFVYDKTDGLVSLDLIGKPKEEQYIVAKNALEGKKVPAEYLTGFNPY | -0.273
HMPKLPIIYVLDGHVNKNALTTSGKNKVWIEHELKKHHINSIKDVLIAMTDTEGKFYYQLYD | -0.0791
HMEMKMGHIISKLRYESGYSQVELAEKIGITKGAVGMYETDKRKPDYDTLIKLADLFNVSTDYLLS | -1.31
HMKLTEEEFNAKRKAYLDRLETLNDEAVIKATFMEAASGLGLQKGSAEFGDLRKYFVDRIVDIK | -0.903
HMSSVDLLSERERQVLARISRGMSNEEIAAELAITPRTVRNHLANIYGKIDVHSRAEAVVWARERGIT | -0.152
HMAIPEVDPAKQGVSATQLAALDALAHRNAGEGRVAGMVNVVIRNGEIVYYKATGPRHIDGGAPLKSTDLF | 0.0394
HMSKLIDQELINFFKNQIESKSFRYGVSIEDSYEEIKSNQIKFYGEQEDKLKAIDNAFIELKRERAGIR | -0.293
HMRSISVEMDGKEYLIPTVSENGKVLSDDDAVKQFKKTGKHLDVFDSPEDATAYARQLHEDQESFYA | 0.22
HMQFLGKVTVTHARQANLRAQPSMDAAIVGKVNPGEVYNVVSIPKTSWYEIQLQNGKTVFIAAGMVSFRM | 0.209
HMSHGYVELKAENNDALISALENHTWFENIKLDPETNLVKAILTKPIEAENLNKMLFEKGIILSHLVKRK | -0.286
HMSYQSYDKVVGDTFFEANLKAESKFGKGNFEIISTRRVKHPIYLGFGHKELVELTIGIHDP | -0.302
HMDSAQLARWAATILAQNGRKITPSTMNLFLERVGDDMENIRMELEKLISYTMGSEVVTAEDVKVITTVQ | -0.82
HMQHRSRALHLQEELVRRYYDQAIAPFMIFWEMKANVTLDQLKELRAVVSPSLNEHPYTKQLDEYIRLAE | -0.275
HMYTVKELSRLTGLTPRTLRYYDAIGLLSPARNRDNDYRLYGGAEVDRLQEILLYREMGLPLEEIGRILD | -0.491
HMKFPPELVEFIEGLSLLKPPLNYATVHRRAEKLAIKKGWASPSYSTVRNIIRKLSPALTTLAHEG | 0.22
HMDKDTFGEFENVKLTEEEYNKLVEKLGENNTKLMIEELSTGIASKGYKYKSHYATILSWSRRRVTKLQER | -1.18
HMARGATELPYSQLLDRVEAGEITTATTQGNTLLSTARDGKRYITYLPLDTMDEVVPRLDAANVEVKTER | -0.123
HMPQLSNEEQKIVDALEGSDGKQINLITVETNIPMARLMSVLFEMEMRGIVKSLNGARYKLN | -0.026
HMVRKIQAKLVLRLHAQGLSGRAIARSQGMSRRSVSDVLDAARAVGVGWDDVTGKTDGEVYALLFPGRG | 0.0261
HMNDILETISNQIRDLRVSKKITQQELAERTNLSVPYISQIENGHRNISLETFIKIVDALDIPLSDFFLP | -1.11
HMDISEIEKRLLDFLEMPRSRKEIAEHLGIRTISYAIQTYITPLIDKKLVKMTIPESPRSHSQQYVRIN | -0.125

Sequence | soluble fraction (log2)
HMTENQKNIDLIKIVSLLVHAAKIDENYTNKEKELIINFINNFSKENKQNIKSSEILEEAEKYEK | -0.0377
HMSINQIADKGYITRLIDNNANIKDVLYYDASSRILAIEDPKYMFYLKNTDWNQFAKEMGFKLE | -0.556
HMLGYQALASAFRSKVEAGIWPIGEAIPSEARLSKEYGVAVGTIRQAIAELAEEGILIKRHGKSTMVSSG | 0.101
HMFDLENIRLTLARRLNVAAHLRPKYVAGFTLLLKQNFPEQNAEDLLNRLEHNQWLKVNQREIEYSPRLLM | -1.23
HMQVPDLYRTLGVGRDATTEAIEAAYVGWQARLSAGEPISTQEWERLRYAHEVLSNPQRRSLYDSLVAET | 0.0568
HMAMSAGEVVERIREHVGHPATIKELMRVLAIPNEERYRFRRRIKQLVEAGELIRIRGNRYGLADR | ≥ 0.43
HMAPVEEWAKASVMEDPTLVTETMARIFAQQGQIGKARKAYRHLALTYPAKSTYFAAQLKKLNQR | 0.355
HMDTEVVMINVVGMNIDKAKNSLNHKNILYKISYQDVSEGENNVVLKQSISSNTKIKKGQVVSLVVGKLN | -0.0691
HMQDVVERIKKYKQLFSITSEELSKRSGIPLGTLNKILSSSTKSIKTETLAAIAKGLDVSVSDLVGREK | -0.0189
HMAEVHVDGVTYQFSNPEQAVKFARKIAKELGLKVEVHGETVHVK | 0.0901
HMIDSDENERIKELIKALISETLKSRGVSPEVISDIKERVDRLHNEELPRFAAELKELISRN | -0.209
HMPVFYATNRQKTTIHNLKRKKGLDDDAYRATIYSFTHGRTDSSKYMYKYEAAELIQKWLDPE | -0.157
HMGMSKQKQSSLVRIIMQEISDANEGRMKMSQIIDAALIKGISDSTVRSVISRLSTTGAIYEPQTGTYEW | -0.374
HMAVNDPDEKFIELGIPADWVQVVRKAGFQTVEALKTVENPNKLHQELSGLNKKMKLGLKTLSQDEVKDWF | -0.0206
HMEGNAFASTGDPEADILDITAVHPMRRDAVEELLARSGAEWSLVEGMLRDGKITMAPWEGEEFFIRS | -1.35
HMSLSVEESYKLLDISPSAGDEEITKKFRLLALKYHPDKNRSKIEWANNIMSRLNQAYSVIMSSRFESNAE | 0.211
HMEITSSNELKKMISNLINSENKNNPISDSNIVEKLKENDFLVARRTVAKYRKLLGIKNVNQRKE | 0.25
HMLKREDEVIVVAGKDKGKRGTITQLVGDDRVIVAGVNMVKRHTKPNPNLGQPGGIVEREASLHISNV | -0.162
HMKVMTNAELGRIIKEARIARRMTQSEVVGDFITRNMLSQIENGNAAPSMRTLQYLMDVLDIHINIE | -0.751
HMKNPLIIGMTKDKIIELIGMPDNIKFLDSSLSKSEVWNYDKFGKKLYIKDEKLYQIENIEE | -0.491
HMSVTVMVLRAAGDIQAGTEITDKHLATVEVGEYGLPEGIINDKDSILGKIALTDIAKGDYFFSQKLG | -1.31
HMTVSIDSLFDKFEDLQEQGLGDKTEEGQELRGLIRAFIEQEHLSVRITRSTSNQELLDMIEEAMQ | -0.551
HMSAAIGEAVIATDEINVRSGPGLSHEIVSVVSRNESYPILEERGDWVQIQLNGGQKGWVVSWLIKKKS | -0.268
HMSGEIPFPPAFKPSADHIAIASEKGINIETELLNFRDYHQARGTKLIDWNSAFRVWLRNAR | -0.869
